From publication PMC6937325, “Tuning PFKFB3 Bisphosphatase Activity Through Allosteric Interference” (Scientific Reports, 2019)
Square brackets hold non-standard residues; d marks the D form. Ends that are not written are not given here.

B1: peptide 4 (YSGFLT) (peptide)
peptide: YSGFLT
notes: printed as YSGFLT; picked by virtual screening of ZINC libraries; also called compound 4; source: synthetic peptide
B2: peptide 5 (SFLLR-CONH2) (peptide)
peptide: SFLLR-NH2
notes: printed as SFLLR-CONH2; picked by virtual screening of ZINC libraries; also called compound 5; source: synthetic peptide

Experiments:
[1] = target: T1, human inducible phospho-fructokinase bisphosphatase isoform 3, PFKFB3 (human, UniProt Q16875 1-520, RED-NHS label); test: MST; Nanotemper microscale thermophoresis; compound in MST buffer mixed 1:1 with 100 nM RED-NHS labeled recombinant PFKFB3, incubated 20 min at room temperature; settings: both partners purified
T1 construct: human PFKFB3 (inducible bifunctional enzyme), GenBank AF056320.1; Plasmid from Prof; Yong-Hwan Lee; also called 6-Phosphofructo-2-kinase/fructose-2,6-biphosphatase 3; human inducible bifunctional enzyme; not shown: His tag, N-terminal, cleaved
T1 sequence (Q16875 whole entry, canonical isoform): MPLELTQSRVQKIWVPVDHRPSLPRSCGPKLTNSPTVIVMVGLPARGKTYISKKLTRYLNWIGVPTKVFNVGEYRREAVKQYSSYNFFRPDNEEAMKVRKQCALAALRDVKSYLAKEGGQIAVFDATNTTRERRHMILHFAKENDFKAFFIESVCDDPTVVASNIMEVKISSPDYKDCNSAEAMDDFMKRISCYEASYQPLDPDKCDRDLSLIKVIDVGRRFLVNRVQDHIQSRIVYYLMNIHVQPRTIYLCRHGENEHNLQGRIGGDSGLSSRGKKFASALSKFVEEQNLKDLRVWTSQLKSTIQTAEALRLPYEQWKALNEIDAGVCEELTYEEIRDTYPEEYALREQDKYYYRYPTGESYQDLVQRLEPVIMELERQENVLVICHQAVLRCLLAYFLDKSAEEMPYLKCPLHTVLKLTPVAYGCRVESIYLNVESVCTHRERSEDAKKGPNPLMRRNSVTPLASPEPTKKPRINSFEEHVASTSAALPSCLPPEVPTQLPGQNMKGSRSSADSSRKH

[2] = target: T1, human inducible phospho-fructokinase …; test: as above; settings: both partners purified; remark: listed apart in the source

Binder	Kd [1]	Kd [2]
B1	18.3 µM	
[dW]-Gly-[dY] [peptide 6 (wGy)]		2.79 µM
B2	44.4 µM	
